For series [1], the system named is HeLa Kyoto. Briefly: solubility change mitosis vs G1/S (difference of NP-40 vs SDS log2 ratios) (log2 ratio difference); higher = more soluble in mitosis.
Series [2] relates to HeLa Kyoto. In words: thermal stability score vs G1/S (z-score of summed log2 fold changes over temperatures); higher = more thermally stable than in G1/S.
Series [3] concerns HeLa Kyoto. Briefly: melting temperature (median over replicates), in situ; higher = more thermally stable.
The subject of series [4] is HeLa Kyoto. In words: solubility in G1/S (NP-40 vs SDS abundance) (log2 ratio); higher = more soluble. To be noted: cell cycle stage: G1/S.
The mark [5] stands for this setting: cell cycle stage: early G1 (4.5 h after nocodazole release).

Here are results for six sequences from the supplement of paper PMC5998384.
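Throughout, for melting temperature (median over replicates), in situ: HeLa Kyoto cells synchronized by double thymidine or nocodazole block, proteins quantified by TMT10plex mass spectrometry, three independent biological replicates.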
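Throughout, for solubility change mitosis vs G1/S (difference of NP-40 vs SDS log2 ratios): synchronized HeLa Kyoto cells (double thymidine block for G1/S, nocodazole release for mitosis), protein amounts in NP-40 versus SDS lysates quantified by mass spectrometry, three biological replicates.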
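Throughout, for solubility in G1/S (NP-40 vs SDS abundance): HeLa Kyoto cells arrested at G1/S by double thymidine block, proteins quantified by TMT10plex mass spectrometry in mild NP-40 versus SDS extracts, three biological replicates.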
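Throughout, for thermal stability score vs G1/S (z-score of summed log2 fold changes over temperatures): synchronized HeLa Kyoto cells, proteins quantified by TMT10plex mass spectrometry, three biological replicates, mitosis taken 0.5 h after nocodazole release, G1/S directly after double thymidine block.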

Turning to “MAAPQDVHVRICNQEIVKFDLEVKALIQDIRDCSGPLSALTELNTKVKEKFQQLRHRIQDLEQLAKEQDKESEKQLLLQEVENHKKQMLSNQASWRKANLTCKIAIDNLEKAELLQGGDLLRQRKTTKESLAQTSSTITESLMGISRMMAQQVQQSEEAMQSLVTSSRTILDANEEFKSMSGTIQLGRKLITKYNRRELTDKLLIFLALALFLATVLYIVKKRLFPFL [BNIP1]”, the “solubility change mitosis (log2)” value with HeLa Kyoto [1] is -0.0998. In addition, the values for the thermal stability score in the series with HeLa Kyoto [2] (setting [5]) and in the series with HeLa Kyoto [2] (cell cycle stage: mitosis) were 1.09 and 0.444, respectively. Besides, the melting temperature was 52.3 °C in the series on HeLa Kyoto [3] (cell cycle stage: G1/S) and 51.7 °C in the series with HeLa Kyoto [3] (cell cycle stage: mitosis). The “solubility in G1/S (log2)” value in the series with HeLa Kyoto [4] is -0.186.

Turning to “MAAPRAGRGAGWSLRAWRALGGIRWGRRPRLTPDLRALLTSGTSDPRARVTYGTPSLWARLSVGVTEPRACLTSGTPGPRAQLTAVTPDTRTREASENSGTRSRAWLAVALGAGGAVLLLLWGGGRGPPAVLAAVPSPPPASPRSQYNFIADVVEKTAPAVVYIEILDRHPFLGREVPISNGSGFVVAADGLIVTNAHVVADRRRVRVRLLSGDTYEAVVTAVDPVADIATLRIQTKEPLPTLPLGRSADVRQGEFVVAMGSPFALQNTITSGIVSSAQRPARDLGLPQTNVEYIQTDAAIDFGNSGGPLVNLDGEVIGVNTMKVTAGISFAIPSDRLREFLHRGEKKNSSSGISGSQRRYIGVMMLTLSPSILAELQLREPSFPDVQHGVLIHKVILGSPAHRAGLRPGDVILAIGEQMVQNAEDVYEAVRTQSQLAVQIRRGRETLTLYVTPEVTE [HTRA2]”, the “solubility change mitosis (log2)” value in the series on HeLa Kyoto [1] amounted to 0.028. The thermal stability score in the series with HeLa Kyoto [2] (setting [5]) is -2.4; in the series on HeLa Kyoto [2] (cell cycle stage: mitosis), -3.14. Also, the melting temperature amounted to 56.9 °C in the series on HeLa Kyoto [3] (cell cycle stage: G1/S) and 56.5 °C with HeLa Kyoto [3] (cell cycle stage: mitosis). Also, the “solubility in G1/S (log2)” value in the series on HeLa Kyoto [4] came to 0.168.

In the case of “MAAPRPPPARLSGVMVPAPIQDLEALRALTALFKEQRNRETAPRTIFQRVLDILKKSSHAVELACRDPSQVENLASSLQLITECFRCLRNACIECSVNQNSIRNLDTIGVAVDLILLFRELRVEQESLLTAFRCGLQFLGNIASRNEDSQSIVWVHAFPELFLSCLNHPDKKIVAYSSMILFTSLNHERMKELEENLNIAIDVIDAYQKHPESEWPFLIITDLFLKSPELVQAMFPKLNNQERVTLLDLMIAKITSDEPLTKDDIPVFLRHAELIASTFVDQCKTVLKLASEEPPDDEEALATIRLLDVLCEMTVNTELLGYLQVFPGLLERVIDLLRVIHVAGKETTNIFSNCGCVRAEGDISNVANGFKSHLIRLIGNLCYKNKDNQDKVNELDGIPLILDNCNISDSNPFLTQWVIYAIRNLTEDNSQNQDLIAKMEEQGLADASLLKKVGFEVEKKGEKLILKSTRDTPKP [ATXN10]”, the “solubility change mitosis (log2)” value in the series on HeLa Kyoto [1] is -0.135. Besides, the thermal stability score with HeLa Kyoto [2] (setting [5]) worked out at 0.984; with HeLa Kyoto [2] (cell cycle stage: mitosis), 1.43. Moreover, the melting temperature with HeLa Kyoto [3] (cell cycle stage: G1/S) was found to be 51.9 °C; in the series on HeLa Kyoto [3] (cell cycle stage: mitosis), 51.1 °C. In the series on HeLa Kyoto [4], the “solubility in G1/S (log2)” value worked out at 0.202.

Turning to “MAAPSGGWNGVGASLWAALLLGAVALRPAEAVSEPTTVAFDVRPGGVVHSFSHNVGPGDKYTCMFTYASQGGTNEQWQMSLGTSEDHQHFTCTIWRPQGKSYLYFTQFKAEVRGAEIEYAMAYSKAAFERESDVPLKTEEFEVTKTAVAHRPGAFKAELSKLVIVAKASRTEL [MYDGF]”, the “solubility change mitosis (log2)” value in the series with HeLa Kyoto [1] is -0.192. The results for the thermal stability score in the series on HeLa Kyoto [2] (setting [5]) and in the series with HeLa Kyoto [2] (cell cycle stage: mitosis) were 2.14 and 0.789, respectively. The melting temperature with HeLa Kyoto [3] (cell cycle stage: G1/S) and in the series with HeLa Kyoto [3] (cell cycle stage: mitosis) was 57.7 °C in each case. Besides, the “solubility in G1/S (log2)” value with HeLa Kyoto [4] amounted to 0.19.

Take “MAAQRIRAANSNGLPRCKSEGTLIDLSEGFSETSFNDIKVPSPSALLVDNPTPFGNAKEVIAIKDYCPTNFTTLKFSKGDHLYVLDTSGGEWWYAHNTTEMGYIPSSYVQPLNYRNSTLSDSGMIDNLPDSPDEVAKELELLGGWTDDKKVPGRMYSNNPFWNGVQTNPFLNGNVPVMPSLDELNPKSTVDLLLFDAGTSSFTESSSATTNSTGNIFDELPVTNGLHAEPPVRRDNPFFRSKRSYSLSELSVLQAKSDAPTSSSFFTGLKSPAPEQFQSREDFRTAWLNHRKLARSCHDLDLLGQSPGWGQTQAVETNIVCKLDSSGGAVQLPDTSISIHVPEGHVAPGETQQISMKALLDPPLELNSDRSCSISPVLEVKLSNLEVKTSIILEMKVSAEIKNDLFSKSTVGLQCLRSDSKEGPYVSVPLNCSCGDTVQAQLHNLEPCMYVAVVAHGPSILYPSTVWDFINKKVTVGLYGPKHIHPSFKTVVTIFGHDCAPKTLLVSEVTRQAPNPAPVALQLWGKHQFVLSRPQDLKVCMFSNMTNYEVKASEQAKVVRGFQLKLGKVSRLIFPITSQNPNELSDFTLRVQVKDDQEAILTQFCVQTPQPPPKSAIKPSGQRRFLKKNEVGKIILSPFATTTKYPTFQDRPVSSLKFGKLLKTVVRQNKNHYLLEYKKGDGIALLSEERVRLRGQLWTKEWYIGYYQGRVGLVHTKNVLVVGRARPSLCSGPELSTSVLLEQILRPCKFLTYIYASVRTLLMENISSWRSFADALGYVNLPLTFFCRAELDSEPERVASVLEKLKEDCNNTENKERKSFQKELVMALLKMDCQGLVVRLIQDFVLLTTAVEVAQRWRELAEKLAKVSKQQMDAYESPHRDRNGVVDSEAMWKPAYDFLLTWSHQIGDSYRDVIQELHLGLDKMKNPITKRWKHLTGTLILVNSLDVLRAAAFSPADQDDFVI [SH3BP4]”: the “solubility change mitosis (log2)” value in the series on HeLa Kyoto [1] is -0.133. The values for the thermal stability score in the series on HeLa Kyoto [2] (setting [5]) and in the series with HeLa Kyoto [2] (cell cycle stage: mitosis) were 0.727 and 0.411, respectively. For the same sequence, the melting temperature with HeLa Kyoto [3] (cell cycle stage: G1/S) came out at 50.4 °C; with HeLa Kyoto [3] (cell cycle stage: mitosis) it was 49.2 °C. In the series on HeLa Kyoto [4], the “solubility in G1/S (log2)” value is -0.0978.

On to “MAAQSAPKVVLKSTTKMSLNERFTNMLKNKQPTPVNIRASMQQQQQLASARNRRLAQQMENRPSVQAALKLKQSLKQRLGKSNIQARLGRPIGALARGAIGGRGLPIIQRGLPRGGLRGGRATRTLLRGGMSLRGQNLLRGGRAVAPRMGLRRGGVRGRGGPGRGGLGRGAMGRGGIGGRGRGMIGRGRGGFGGRGRGRGRGRGALARPVLTKEQLDNQLDAYMSKTKGHLDAELDAYMAQTDPETND [CHTOP]”, for which the “solubility change mitosis (log2)” value in the series with HeLa Kyoto [1] was determined as 0.761. The figures for the thermal stability score with HeLa Kyoto [2] (setting [5]) and with HeLa Kyoto [2] (cell cycle stage: mitosis) were -2.91 and -0.126, respectively. The melting temperature in the series on HeLa Kyoto [3] (cell cycle stage: G1/S) worked out at 51 °C; with HeLa Kyoto [3] (cell cycle stage: mitosis), 51.7 °C. Also, in the series on HeLa Kyoto [4], the “solubility in G1/S (log2)” value was -0.246.
